{"source": "paper PMC5735676", "about": "“Leishmania braziliensis SCD6 and RBP42 proteins, two factors with RNA binding capacity”", "key": {"rLbSCD6 [1]": {"target": "T1, rLbSCD6 (Leishmania braziliensis, UniProt A4HEG4 1-294)", "T1 sequence": "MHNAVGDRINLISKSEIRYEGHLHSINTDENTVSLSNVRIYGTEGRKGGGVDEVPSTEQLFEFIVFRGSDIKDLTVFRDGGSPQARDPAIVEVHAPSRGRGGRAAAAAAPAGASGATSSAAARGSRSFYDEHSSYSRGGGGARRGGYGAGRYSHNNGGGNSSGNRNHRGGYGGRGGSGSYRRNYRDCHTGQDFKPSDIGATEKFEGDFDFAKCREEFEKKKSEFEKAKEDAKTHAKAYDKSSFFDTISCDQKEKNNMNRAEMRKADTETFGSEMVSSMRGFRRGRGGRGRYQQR", "test": "EMSA; 6 mM Mg2+, heparin; 12.5 nM RNA; EMSA: 10 mM HEPES pH 7.3, 20 mM KCl, 6 mM MgCl2, 1 mM DTT, 0.05% NP-40, 1 ug/ul heparin, 40 U RNaseOUT, room temperature 20 min, 6% native PAGE 0.5x TBE; pull-down at room temperature on His-tag Dynabeads, 1x pull-down buffer (composition not stated)", "conditions": "protein: recombinant; tags: His tag (nickel column); label: 5' digoxigenin"}, "rLbRBP42 [2]": {"target": "T2, rLbRBP42 (Leishmania braziliensis, UniProt A4HIP3 1-338)", "T2 sequence": "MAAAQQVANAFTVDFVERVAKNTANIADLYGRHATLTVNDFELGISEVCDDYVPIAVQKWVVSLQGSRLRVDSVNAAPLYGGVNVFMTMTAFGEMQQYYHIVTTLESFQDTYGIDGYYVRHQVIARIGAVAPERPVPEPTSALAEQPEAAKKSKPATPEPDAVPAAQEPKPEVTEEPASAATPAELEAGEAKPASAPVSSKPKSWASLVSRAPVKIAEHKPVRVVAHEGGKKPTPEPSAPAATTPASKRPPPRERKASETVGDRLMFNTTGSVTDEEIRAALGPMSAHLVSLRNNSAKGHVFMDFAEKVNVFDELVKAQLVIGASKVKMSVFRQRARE", "test": "EMSA; 6 mM Mg2+, heparin; 3 pM protein, 12.5 nM RNA; EMSA: 10 mM HEPES pH 7.3, 20 mM KCl, 6 mM MgCl2, 1 mM DTT, 0.05% NP-40, 1 ug/ul heparin, 40 U RNaseOUT, room temperature 20 min, 6% native PAGE 0.5x TBE; pull-down at room temperature on His-tag Dynabeads, 1x pull-down buffer (composition not stated)", "conditions": "protein: recombinant; tags: His tag (nickel column); label: 5' digoxigenin"}, "rLbSCD6 [3]": {"target": "T1, rLbSCD6", "test": "competition; vs 12.5 nM labeled N2; completely competed at 1-fold cold RNA; EMSA: 10 mM HEPES pH 7.3, 20 mM KCl, 6 mM MgCl2, 1 mM DTT, 0.05% NP-40, 1 ug/ul heparin, 40 U RNaseOUT, room temperature 20 min, 6% native PAGE 0.5x TBE; pull-down at room temperature on His-tag Dynabeads, 1x pull-down buffer (composition not stated)", "conditions": "protein: recombinant; tags: His tag (nickel column)"}, "rLbRBP42 [4]": {"target": "T2, rLbRBP42", "test": "competition; vs 12.5 nM labeled N2; decrease of complex only at 4-fold cold RNA; EMSA: 10 mM HEPES pH 7.3, 20 mM KCl, 6 mM MgCl2, 1 mM DTT, 0.05% NP-40, 1 ug/ul heparin, 40 U RNaseOUT, room temperature 20 min, 6% native PAGE 0.5x TBE; pull-down at room temperature on His-tag Dynabeads, 1x pull-down buffer (composition not stated)", "conditions": "protein: recombinant; tags: His tag (nickel column)"}, "rLbSCD6 [5]": {"target": "T1, rLbSCD6", "test": "competition; vs 12.5 nM labeled N2; up to 8-fold (100 nM) cold RNA; EMSA: 10 mM HEPES pH 7.3, 20 mM KCl, 6 mM MgCl2, 1 mM DTT, 0.05% NP-40, 1 ug/ul heparin, 40 U RNaseOUT, room temperature 20 min, 6% native PAGE 0.5x TBE; pull-down at room temperature on His-tag Dynabeads, 1x pull-down buffer (composition not stated)", "conditions": "protein: recombinant; tags: His tag (nickel column)"}, "rLbRBP42 [6]": {"target": "T2, rLbRBP42", "test": "competition; vs 12.5 nM labeled N2; up to 8-fold (100 nM) cold RNA; EMSA: 10 mM HEPES pH 7.3, 20 mM KCl, 6 mM MgCl2, 1 mM DTT, 0.05% NP-40, 1 ug/ul heparin, 40 U RNaseOUT, room temperature 20 min, 6% native PAGE 0.5x TBE; pull-down at room temperature on His-tag Dynabeads, 1x pull-down buffer (composition not stated)", "conditions": "protein: recombinant; tags: His tag (nickel column)"}}, "data": [{"binder": "3' UTR-II.1 motif (ssRNA) RNA: AUGUCUUUUAUUUUUUUGUGUGUGUUUUAUAUUUUUCUCCUUUCGUACUAA", "values": [{"measurement": "binding result", "setting": "rLbSCD6 [1]", "value": "binds"}, {"measurement": "binding result", "setting": "rLbRBP42 [2]", "value": "binds"}]}, {"binder": "3' UTR-II.1 motif, cold (ssRNA) RNA: AUGUCUUUUAUUUUUUUGUGUGUGUUUUAUAUUUUUCUCCUUUCGUACUAA", "values": [{"measurement": "binding result", "setting": "rLbSCD6 [3]", "value": "binds"}, {"measurement": "binding result", "setting": "rLbRBP42 [4]", "value": "binds"}]}, {"binder": "3' UTR-II.1 antisense (ssRNA) RNA: UACAGAAAAUAAAAAAACACACACAAAAUAUAAAAAGAGGAAAGCAUGAUU", "values": [{"measurement": "binding result", "setting": "rLbSCD6 [5]", "value": "no binding"}, {"measurement": "binding result", "setting": "rLbRBP42 [6]", "value": "no binding"}]}]}
